The source of these data is PMC5218393.

For the assay, the target named is C7 scFv (soluble, purified). The assay is described as follows: competition ELISA. As to conditions: chain shown with the change, competition format: a low value means the soluble protein binds the scFv, read off a plot; for other: Relative binding (residual antibody binding to coated Lu-Fc with the mutant protein as competitor): mutant protein mixed with diluted C7 scFv, wells coated with Lu-Fc; for other: Relative binding (residual antibody binding to coated antigen with the mutant protein as competitor): C7 scFv 0.6 μg/ml mixed with the mutant protein. For orientation: An ELISA detects its analyte on a solid surface through an enzyme-linked reagent.
Chain of C7 scFv (soluble, purified) (chain, as listed by the source, chain 1 of 2): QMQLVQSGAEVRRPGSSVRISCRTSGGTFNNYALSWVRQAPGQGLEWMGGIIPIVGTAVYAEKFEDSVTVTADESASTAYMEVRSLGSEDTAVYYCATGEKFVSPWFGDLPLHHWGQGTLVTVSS
Chain of C7 scFv (soluble, purified) (chain, as listed by the source, chain 2 of 2): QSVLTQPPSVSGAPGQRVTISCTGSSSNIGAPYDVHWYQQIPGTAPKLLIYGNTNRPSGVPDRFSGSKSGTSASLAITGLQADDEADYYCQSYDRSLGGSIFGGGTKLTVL

B1: recombinant Lu extracellular domain fused with an Fc-Tag (Lu-Fc), P50895 H257R (protein)
chain: EVRLSVPPLVEVMRGKSVILDCTPTGTHDHYMLEWFLTDRSGARPRLASAEMQGSELQVTMHDTRGRSPPYQLDSQGRLVLAEAQVGDERDYVCVVRAGAAGTAEATARLNVFAKPEATEVSPNKGTLSVMEDSAQEIATCNSRNGNPAPKITWYRNGQRLEVPVEMNPEGYMTSRTVREASGLLSLTSTLYLRLRKDDRDASFHCAAHYSLPEGRHGRLDSPTFRLTLHYPTEHVQFWVGSPSTPAGWVREGDTVQLLCRGDGSPSPEYTLFRLQDEQEEVLNVNLEGNLTLEGVTRGQSGTYGCRVEDYDAADDVQLSKTLELRVAYLDPLELSEGKVLSLPLNSSAVVNCSVHGLPTPALRWTKDSTPLGDGPMLSLSSITFDSNGTYVCEASLPTVPVLSRTQNFTLLVQGSPELKTAEIEPKADGSWREGDEVTLICSARGHPDPKLSWSQLGGSPAEPIPGRQGWVSSSLTLKVTSALSRDGISCEASNPHGNKRHVFHFGTVSPQTSQA
In the case of B1, the other: Relative binding (residual antibody binding to coated Lu-Fc with the mutant protein as competitor) was 3%.

B2: recombinant Lu extracellular domain fused with an Fc-Tag (Lu-Fc), P50895 S242D (protein)
chain: EVRLSVPPLVEVMRGKSVILDCTPTGTHDHYMLEWFLTDRSGARPRLASAEMQGSELQVTMHDTRGRSPPYQLDSQGRLVLAEAQVGDERDYVCVVRAGAAGTAEATARLNVFAKPEATEVSPNKGTLSVMEDSAQEIATCNSRNGNPAPKITWYRNGQRLEVPVEMNPEGYMTSRTVREASGLLSLTSTLYLRLRKDDRDASFHCAAHYDLPEGRHGRLDSPTFHLTLHYPTEHVQFWVGSPSTPAGWVREGDTVQLLCRGDGSPSPEYTLFRLQDEQEEVLNVNLEGNLTLEGVTRGQSGTYGCRVEDYDAADDVQLSKTLELRVAYLDPLELSEGKVLSLPLNSSAVVNCSVHGLPTPALRWTKDSTPLGDGPMLSLSSITFDSNGTYVCEASLPTVPVLSRTQNFTLLVQGSPELKTAEIEPKADGSWREGDEVTLICSARGHPDPKLSWSQLGGSPAEPIPGRQGWVSSSLTLKVTSALSRDGISCEASNPHGNKRHVFHFGTVSPQTSQA
The molecule B2 registered an other: Relative binding (residual antibody binding to coated Lu-Fc with the mutant protein as competitor) of 18%.

B3: recombinant Lu extracellular domain fused with an Fc-Tag (Lu-Fc), P50895 E245S (protein)
chain: EVRLSVPPLVEVMRGKSVILDCTPTGTHDHYMLEWFLTDRSGARPRLASAEMQGSELQVTMHDTRGRSPPYQLDSQGRLVLAEAQVGDERDYVCVVRAGAAGTAEATARLNVFAKPEATEVSPNKGTLSVMEDSAQEIATCNSRNGNPAPKITWYRNGQRLEVPVEMNPEGYMTSRTVREASGLLSLTSTLYLRLRKDDRDASFHCAAHYSLPSGRHGRLDSPTFHLTLHYPTEHVQFWVGSPSTPAGWVREGDTVQLLCRGDGSPSPEYTLFRLQDEQEEVLNVNLEGNLTLEGVTRGQSGTYGCRVEDYDAADDVQLSKTLELRVAYLDPLELSEGKVLSLPLNSSAVVNCSVHGLPTPALRWTKDSTPLGDGPMLSLSSITFDSNGTYVCEASLPTVPVLSRTQNFTLLVQGSPELKTAEIEPKADGSWREGDEVTLICSARGHPDPKLSWSQLGGSPAEPIPGRQGWVSSSLTLKVTSALSRDGISCEASNPHGNKRHVFHFGTVSPQTSQA
B3 yielded an other: Relative binding (residual antibody binding to coated Lu-Fc with the mutant protein as competitor) of 22%.

B4: recombinant Lu extracellular domain fused with an Fc-Tag (Lu-Fc), P50895 R247Q (protein)
chain: EVRLSVPPLVEVMRGKSVILDCTPTGTHDHYMLEWFLTDRSGARPRLASAEMQGSELQVTMHDTRGRSPPYQLDSQGRLVLAEAQVGDERDYVCVVRAGAAGTAEATARLNVFAKPEATEVSPNKGTLSVMEDSAQEIATCNSRNGNPAPKITWYRNGQRLEVPVEMNPEGYMTSRTVREASGLLSLTSTLYLRLRKDDRDASFHCAAHYSLPEGQHGRLDSPTFHLTLHYPTEHVQFWVGSPSTPAGWVREGDTVQLLCRGDGSPSPEYTLFRLQDEQEEVLNVNLEGNLTLEGVTRGQSGTYGCRVEDYDAADDVQLSKTLELRVAYLDPLELSEGKVLSLPLNSSAVVNCSVHGLPTPALRWTKDSTPLGDGPMLSLSSITFDSNGTYVCEASLPTVPVLSRTQNFTLLVQGSPELKTAEIEPKADGSWREGDEVTLICSARGHPDPKLSWSQLGGSPAEPIPGRQGWVSSSLTLKVTSALSRDGISCEASNPHGNKRHVFHFGTVSPQTSQA
In the case of B4, the other: Relative binding (residual antibody binding to coated Lu-Fc with the mutant protein as competitor) was found to be 87%.

B5: recombinant Lu extracellular domain fused with an Fc-Tag (Lu-Fc), P50895 A149D (protein)
chain: EVRLSVPPLVEVMRGKSVILDCTPTGTHDHYMLEWFLTDRSGARPRLASAEMQGSELQVTMHDTRGRSPPYQLDSQGRLVLAEAQVGDERDYVCVVRAGAAGTAEATARLNVFAKPEDTEVSPNKGTLSVMEDSAQEIATCNSRNGNPAPKITWYRNGQRLEVPVEMNPEGYMTSRTVREASGLLSLTSTLYLRLRKDDRDASFHCAAHYSLPEGRHGRLDSPTFHLTLHYPTEHVQFWVGSPSTPAGWVREGDTVQLLCRGDGSPSPEYTLFRLQDEQEEVLNVNLEGNLTLEGVTRGQSGTYGCRVEDYDAADDVQLSKTLELRVAYLDPLELSEGKVLSLPLNSSAVVNCSVHGLPTPALRWTKDSTPLGDGPMLSLSSITFDSNGTYVCEASLPTVPVLSRTQNFTLLVQGSPELKTAEIEPKADGSWREGDEVTLICSARGHPDPKLSWSQLGGSPAEPIPGRQGWVSSSLTLKVTSALSRDGISCEASNPHGNKRHVFHFGTVSPQTSQA
In the case of B5, the other: Relative binding (residual antibody binding to coated antigen with the mutant protein as competitor) (parent: est. 5) was 3%.

B6: recombinant Lu extracellular domain fused with an Fc-Tag (Lu-Fc), P50895 R175N (protein)
chain: EVRLSVPPLVEVMRGKSVILDCTPTGTHDHYMLEWFLTDRSGARPRLASAEMQGSELQVTMHDTRGRSPPYQLDSQGRLVLAEAQVGDERDYVCVVRAGAAGTAEATARLNVFAKPEATEVSPNKGTLSVMEDSAQEIATCNSNNGNPAPKITWYRNGQRLEVPVEMNPEGYMTSRTVREASGLLSLTSTLYLRLRKDDRDASFHCAAHYSLPEGRHGRLDSPTFHLTLHYPTEHVQFWVGSPSTPAGWVREGDTVQLLCRGDGSPSPEYTLFRLQDEQEEVLNVNLEGNLTLEGVTRGQSGTYGCRVEDYDAADDVQLSKTLELRVAYLDPLELSEGKVLSLPLNSSAVVNCSVHGLPTPALRWTKDSTPLGDGPMLSLSSITFDSNGTYVCEASLPTVPVLSRTQNFTLLVQGSPELKTAEIEPKADGSWREGDEVTLICSARGHPDPKLSWSQLGGSPAEPIPGRQGWVSSSLTLKVTSALSRDGISCEASNPHGNKRHVFHFGTVSPQTSQA
Regarding B6, the other: Relative binding (residual antibody binding to coated antigen with the mutant protein as competitor) (parent: est. 5) is 4%.

B7: recombinant Lu extracellular domain fused with an Fc-Tag (Lu-Fc), P50895 P254H (protein)
chain: EVRLSVPPLVEVMRGKSVILDCTPTGTHDHYMLEWFLTDRSGARPRLASAEMQGSELQVTMHDTRGRSPPYQLDSQGRLVLAEAQVGDERDYVCVVRAGAAGTAEATARLNVFAKPEATEVSPNKGTLSVMEDSAQEIATCNSRNGNPAPKITWYRNGQRLEVPVEMNPEGYMTSRTVREASGLLSLTSTLYLRLRKDDRDASFHCAAHYSLPEGRHGRLDSHTFHLTLHYPTEHVQFWVGSPSTPAGWVREGDTVQLLCRGDGSPSPEYTLFRLQDEQEEVLNVNLEGNLTLEGVTRGQSGTYGCRVEDYDAADDVQLSKTLELRVAYLDPLELSEGKVLSLPLNSSAVVNCSVHGLPTPALRWTKDSTPLGDGPMLSLSSITFDSNGTYVCEASLPTVPVLSRTQNFTLLVQGSPELKTAEIEPKADGSWREGDEVTLICSARGHPDPKLSWSQLGGSPAEPIPGRQGWVSSSLTLKVTSALSRDGISCEASNPHGNKRHVFHFGTVSPQTSQA
With B7, the other: Relative binding (residual antibody binding to coated antigen with the mutant protein as competitor) (parent: est. 5) worked out at 3%.

B8: mouse Lu-Fc (MsLu-Fc), Q9R069 D142A; N168R; H247P (protein)
chain: ELHVSVPPRVEVMRGEQVALDCTPREHPEHYVLEWFLVDGTGARHRLASVEPQGSEFLGTVHSLGRVPPYEVDSRGRLVIAKVQVGDGRDYVCVVKAGAAGTSEATSSVRVFATPEATEVSPNKGTLSVMDQFAQEIATCSSRNGNPVPRITWYRNGQRLEVPMEVNQKGYITIRTVREASGLYSLTSTLYLRLHKDDRDANFHCAAHYDLPSGQHGRLDSPTFRLTLHYPTEHVEFWVGSPSTTEGWVREGDAVQLLCQGDGSPSPEYSFFRQQGTQEEQLNVNLKGNLTLERVHRNQSGIYGCRVEDYDADEEVQLVKKLKLHVAYLDPLELSVPEELFVFLNSSSTVVNCSARGLPTPTVRWTKDSVTLADGPMLSLQSVTFDSAGTYTCEASTPTVPLLSRTQSFQLIVQGAPELKPNEIMPKSGNSWTEGDEVMLTCSARGFPEPKLTWSQRGDTPAEPPFEGRGWKSSSLMVKVTSALSREGVSCEASNIHGKKGHVFHFGSVAPQTAQA
B8: the other: Relative binding (residual antibody binding to coated antigen with the mutant protein as competitor) (parent: est. 110) stood at 95%.

B9: mouse Lu-Fc (MsLu-Fc), Q9R069 Q240R (protein)
chain: ELHVSVPPRVEVMRGEQVALDCTPREHPEHYVLEWFLVDGTGARHRLASVEPQGSEFLGTVHSLGRVPPYEVDSRGRLVIAKVQVGDGRDYVCVVKAGAAGTSEATSSVRVFATPEDTEVSPNKGTLSVMDQFAQEIATCSSNNGNPVPRITWYRNGQRLEVPMEVNQKGYITIRTVREASGLYSLTSTLYLRLHKDDRDANFHCAAHYDLPSGRHGRLDSHTFRLTLHYPTEHVEFWVGSPSTTEGWVREGDAVQLLCQGDGSPSPEYSFFRQQGTQEEQLNVNLKGNLTLERVHRNQSGIYGCRVEDYDADEEVQLVKKLKLHVAYLDPLELSVPEELFVFLNSSSTVVNCSARGLPTPTVRWTKDSVTLADGPMLSLQSVTFDSAGTYTCEASTPTVPLLSRTQSFQLIVQGAPELKPNEIMPKSGNSWTEGDEVMLTCSARGFPEPKLTWSQRGDTPAEPPFEGRGWKSSSLMVKVTSALSREGVSCEASNIHGKKGHVFHFGSVAPQTAQA
Regarding B9, the other: Relative binding (residual antibody binding to coated Lu-Fc with the mutant protein as competitor) came out at 14%.
